Assay results published in PMC4534130.
Like-named read-outs stand apart in the source and are kept apart here.

How the values were obtained:
[1] = target: Human FcγRIIIa_V158 (human)
[2] = target: Human FcγRIIIa_V158 (human); remark: listed apart in the source

| relative ADCC activity (NK cell line expressing FcγRIIIa V158; target cells expressing a receptor of the EGFR family; relative to a reference material set to 100%) [1] [%] | relative ADCC activity (NK cell line expressing FcγRIIIa V158; target cells expressing a receptor of the EGFR family; relative to a reference material set to 100%) [2] [%] | Substance |
| --- | --- | --- |
| 115 |  | IgG1, di-sialylated variant (antibody) |
|  | 118 | IgG1, hyper-galactosylated variant (antibody) |
|  | 66 | IgG1, hypo-galactosylated variant (antibody) |
| 104 |  | IgG1, mono-sialylated variant (antibody) |
